This experiment has as its target T1, 송아지 혈청 알부민(BSA) (bovine (printed: 송아지 혈청 알부민), UniProt P02769 25-607).
T1 construct: also called bovine serum albumin
Put plainly: phage ELISA, 1% BSA coated, anti-M13-peroxidase, absorbance 492 nm.

The values below come from patent KR20160003317A (dated 2016).

T1 sequence (P02769 25-607 limits assumed): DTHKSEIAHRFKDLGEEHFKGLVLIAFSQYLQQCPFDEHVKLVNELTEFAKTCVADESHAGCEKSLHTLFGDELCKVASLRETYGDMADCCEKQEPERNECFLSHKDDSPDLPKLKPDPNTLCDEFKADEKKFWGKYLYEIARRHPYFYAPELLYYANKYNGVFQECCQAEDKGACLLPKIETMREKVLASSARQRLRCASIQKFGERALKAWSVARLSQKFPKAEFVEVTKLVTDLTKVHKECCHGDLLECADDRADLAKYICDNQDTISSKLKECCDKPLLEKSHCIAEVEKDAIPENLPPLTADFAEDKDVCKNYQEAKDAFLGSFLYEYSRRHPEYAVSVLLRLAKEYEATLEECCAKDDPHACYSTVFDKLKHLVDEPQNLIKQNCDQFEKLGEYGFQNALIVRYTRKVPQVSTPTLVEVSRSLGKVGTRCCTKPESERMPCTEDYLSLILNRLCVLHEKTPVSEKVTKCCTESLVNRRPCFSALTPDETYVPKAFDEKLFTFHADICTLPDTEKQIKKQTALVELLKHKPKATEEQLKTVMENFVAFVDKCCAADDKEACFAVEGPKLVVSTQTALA

B1: SC05-187 (scFv)
scFv: EVQLVQSGAEVKKPGESLKISCKGSGYSFTKYWIGWVRQMPGKGLEWMGIIYPGDSDTRYSPSFQGQVTISADKSISTAYLQWSSLKASDTAMYYCARGSGIATGNSFDSWGQGTLVTVSSGTGGSGGTGSGTGGSTQTVVTQEPSLTVSPGGTVTLTCASSTGAVTSGYYPNWFQQKPGQAPRALIYSTSKKHSWTPARFSGSLLGGRAALTLSGAQPEDEADYYCLLSYGGARVFGGGTKLTVL
notes: single-chain phage antibody: the scFv stood on phage in the ELISA
On to B1, for which the binding result is “no binding”.

B2: SC06-049 (scFv)
scFv: QVQLVQSGAEVKKPGESLKISCKGSGYSFTSYWIGWVRQMPGKGLEWMGIIYPGDSDTRYSPSFQGQVTISADKSIGTAYLQWSSLKASDTAMYYCARLFRVRGGHFDSWGQGTLVTVSSGTGGSGGTGSGTGGSTQSALTQPASVSGSPGQSITISCTGTNSDVGGYNYVSWYQQHPGKAPKLLIYDVTNRPSGVSNRFSASKSGNTASLTISGLQAEDEADYYCSSFTSSSTRVFGGGTKLTVL
notes: as for B1
For the molecule B2, the binding result is on record as “no binding”.

B3: SC06-043 (scFv)
scFv: EVQLVESGAEVKKPGESLKISCKGSGYSFTSYWIGWVRQMPGKGLEWMGIIYPGDSDTRYSPSFQGQVTISADKSISTAYLQWSSLKASDTAMYYCARRYCSGGTCSDGFDIWGQGTMVTVSSGTGGSGGTGSGTGGSTQSALTQPPSASGSPGQSVTISCTGTSSDVGGYNYVSWYQQHPGKAPKLMIYEVSKRPSGVPDRFSGSKSGNTASLTVSGLQAEDEADYYCSSYAGSNNLVFGGGTKLTVL
notes: as for B1
Consider B3, for which the binding result was “no binding”.

B4: SC06-432 (scFv)
scFv: QLQLQESGPGLVKPSQTLSLTCTVSGGSISSGGYYWSWIRQHPGKGLEWIGYIYYSGSTYYNPSLKSRVTISVDTSKNQFSLKLSSVTAADTAVYYCARERILDRMNDYWGQGTLVTVSSGTGGSGGTGSGTGGSTQSVVTQPPSVSGAPGQRVTISCTGSSSNIGAGYDVHWYQQLPGTAPKLLIYGNSNRPSGVPDRFSGSKSGTSASLAITGLQAEDEADYYCQSSDSSLNILFGGGTKLTVL
notes: as for B1
As to B4, the binding result is reported as “no binding”.

B5: SC05-179 (scFv)
scFv: EVQLVESGGGLVKPGGSLGLSCAASGFFFSDYSMSWIRQAPGKGLEWLSNISGSGHSTKYAESMRGRITISRDNAKKSLSLQLNSLRAEDTAVYFCVRGGGYRMDVWGQGTTVTVSSGTGGSGGTGSGTGGSTQSALTQPRSVPGSPGQSVTISCTGTSSDVGGYNYVSWYQQHPGKAPKLMIYDVSKRPSGVPDRFSGSKSGNTASLTVSGLQAEDEADYYCSSYAGSNNFVVFGGGTKLTVL
notes: as for B1
In the case of B5, the binding result is “no binding”.

B6: SC06-050 (scFv)
scFv: EVQLVESGPEVKKPGASVKVSCEASGYNLDNYGITWVRQAPGQGLEWLGWISAYNAKTEYGQRLQGRVTMTTDTATSTAYLELRSLRSDDTAVYYCARVLGYRGGWYDEGDAFDVWGQGTMVTVSSGTGGSGGTGSGTGGSTDIQLTQSPSFLSASVGDRVTITCRASQGIRSHLAWYQQKAGKAPKLLIYAASTLQSGVPSRFSGSGSGTEFTLTISSLQPDDFAAYYCQQLNTYPITFGQGTRLEIK
notes: single-chain phage antibody: the scFv stood on phage in the ELISA; also called SC05-050
B6: the binding result was “no binding”.

B7: SC06-429 (scFv)
scFv: QVQLVQSGAEVKNPGESLKISCKGSGYTFTSYWIGWVRQMPGKGLEWMGSIYPGDSDTRYSPSFQGQVTISVDKSISTAYLQWSSLKASDTAMYYCARQYRAGSTTRFDPWGQGTLVTVSSGTGGSGGTGSGTGGSTDVVMTQSPLSLPVTPGEPASISCRSSQSLRHRNGNNYLDWYLQKPGQSPQLLIYLGSNRASGVPDRFSGSGSGTDFTLKISRVEAEDVGIYYCMQALQTPLTFGGGTKVEIK
notes: as for B1
With B7, the binding result was “no binding”.

B8: SC06-016 (scFv)
scFv: QVQLVQSGPEVKKPGASVTVSCKASGYSFSSYGISWVRQAPGQGLEWMGRIIPVGGNTLYSQMFQGRVTMTSDTSTSTVYLELSSLRSEDTAVYFCARDGGRWQFDYWGQGTLVTVSSGTGGSGGTGSGTGGSTDIQLTQSPSSVSASVGDRVTITCRASQGISNWLAWYQQKPGKAPELLIYAASSLQSGVPPRFSGSASGTDFTLTISSLQPEDFATYYCQQSKNFPYTFGQGTKVEIK
notes: as for B1
For B8, the binding result is “no binding”.
